Measured values reported in PMC9598796 (2022).

B1: DARPin #3 (designed binder)
chain: GKKLLEAARAGQDDEVRILMANGADVNACDSNGRTPLHLAAVRGHLEIVEVLLKNGADVNAWDVIGKTPLHLAADGGHLEIVEVLLKNGADVNAWDLIGRTPLHLAALDGHLEIVEVLLEHGADVNAYDRPGHTPLHLAARRGHLEIVEVLLKYGADVNAQDKFGKTAFDISIDNGNEDLAEILQ
B2: dimeric DARPin SD5 (#3-SHT) (designed binder)
chain: GKKLLEAARAGQDDEVRILMANGADVNACDSNGRTPLHLAAVRGHLEIVEVLLKNGADVNAWDVIGKTPLHLAADGGHLEIVEVLLKNGADVNAWDLIGRTPLHLAALDGHLEIVEVLLEHGADVNAYDRPGHTPLHLAARRGHLEIVEVLLKYGADVNAQDKFGKTAFDISIDNGNEDLAEILQGGGGSGGGGSGGGGSGGGGSGKKLLEAARAGQDDEVRILVANGADVNAGDPFGFTPLHLAALYGHLEIVEVLLKNGADVNAHEEYGFTPLHLAAVVSHMEIVEVLLNNGADVNARDNQGGSPLHLASHTGHLEIVEVLLKQGADVNAQDKFGKTAYDISIDIGNEDLAEILQ

Target: biotinylated Stx2a holotoxin (Shiga toxin-producing E. coli (STEC), UniProt P09385;P09386)
Sequence (P09385 23-319, chain 1 of 2): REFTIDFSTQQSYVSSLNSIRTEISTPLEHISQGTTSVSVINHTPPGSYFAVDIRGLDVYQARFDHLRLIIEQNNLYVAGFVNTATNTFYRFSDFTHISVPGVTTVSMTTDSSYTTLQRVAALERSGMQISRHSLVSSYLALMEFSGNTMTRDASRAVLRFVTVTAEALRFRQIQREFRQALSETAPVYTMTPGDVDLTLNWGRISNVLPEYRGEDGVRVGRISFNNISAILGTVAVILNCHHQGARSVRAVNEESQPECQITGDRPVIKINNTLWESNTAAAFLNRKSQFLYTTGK
Sequence (P09386 20-89, chain 2 of 2): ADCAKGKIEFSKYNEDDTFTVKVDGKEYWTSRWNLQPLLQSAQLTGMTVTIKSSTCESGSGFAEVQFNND
Assay: BLI

Row | Binder | koff [s⁻¹]
1 | B1 | 0.0438
2 | B2 | 0.0126
